Measured values as given in patent US20130071417A1 (GOVERNING COUNCIL OF THE UNIVERSITY OF TORONTO, published 2013).

B1: FLAG-tagged rCEA N (CEA residues 1-214 with His-tag and FLAG epitope) (other, human, UniProt P06731 35-248, looked up, not shown: small tags and cut ends)
chain: KLTIESTPFNVAEGKEVLLLVHNLPQHLFGYSWYKGERVDGNRQIIGYVIGTQQATPGPAYSGREIIYPNASLLIQNIIQNDTGFYTLHVIKSDLVNEEATGQFRVYPELPKPSISSNNSKPVEDKDAVAFTCEPETQDATYLWWVNNQSLPVSPRLQLSNGNRTLTLFNVTRNDTASYKCETQNPVSARRSDSVILNVLYGPDAPTISPLNTS
notes: range 1-214; Made in E. coli; The extra C-terminal CEA residues were added for stability and yield; also called FLAG-tagged rCEA N domain; FLAG-tagged N domain

Key:
[1] = target: T1, His-tagged rCEA A3B3 domain (residues 445-656, C-terminal His-tag) (human, UniProt P06731 479-690); assay: ELISA; target coated (2 µg per well), FLAG-tagged rCEA N titrated, anti-FLAG M2 HRP detection
T1 construct: also called rCEA A3B3 fragment
T1 sequence: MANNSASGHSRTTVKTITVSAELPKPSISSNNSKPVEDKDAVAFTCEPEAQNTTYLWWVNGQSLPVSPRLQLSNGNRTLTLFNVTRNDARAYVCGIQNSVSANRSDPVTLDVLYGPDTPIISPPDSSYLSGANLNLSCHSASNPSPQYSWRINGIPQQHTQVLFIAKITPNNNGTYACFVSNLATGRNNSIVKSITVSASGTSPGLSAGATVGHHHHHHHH
Method: (§1) Briefly, 96-well flat-bottomed Falcon microtiter plates (Becton-Dickinson Biosciences; Franklin Lakes, N.J.) were coated with 2 μg of purified CEA modules or full length CEA per well. After blocking with PBS containing Tween (0.05% v/v) and bovine serum albumin (1% w/v), the plates were then incubated for one hour at room temperature with increasing concentrations of the FLAG-tagged rCEA N diluted in PBS-Tween (0.05%; 100 μL). The presence of bound FLAG-tagged rCEA was detected by incubating the plates for 1 hour at room temperature with horseradish peroxidase (HRP) coupled anti-FLAG monoclonal antibody M2 (1:5,000 dilution; Sigma-Aldrich). The chromogenic HRP substrate 3,3′,5,5′-tetramethylbenzidine (TMB; Sigma) was used to measure at 450 nm the amount of bound FLAG-tagged N domain.

[2] = target: T2, full length tumour glycoform of human CEA (Sigma-Aldrich) (human, UniProt P06731 35-685, glycosylated (tumour glycoform)); assay: as above
T2 construct: mature; Bought protein; also called FL-CEA; full length CEA
T2 sequence (looked up): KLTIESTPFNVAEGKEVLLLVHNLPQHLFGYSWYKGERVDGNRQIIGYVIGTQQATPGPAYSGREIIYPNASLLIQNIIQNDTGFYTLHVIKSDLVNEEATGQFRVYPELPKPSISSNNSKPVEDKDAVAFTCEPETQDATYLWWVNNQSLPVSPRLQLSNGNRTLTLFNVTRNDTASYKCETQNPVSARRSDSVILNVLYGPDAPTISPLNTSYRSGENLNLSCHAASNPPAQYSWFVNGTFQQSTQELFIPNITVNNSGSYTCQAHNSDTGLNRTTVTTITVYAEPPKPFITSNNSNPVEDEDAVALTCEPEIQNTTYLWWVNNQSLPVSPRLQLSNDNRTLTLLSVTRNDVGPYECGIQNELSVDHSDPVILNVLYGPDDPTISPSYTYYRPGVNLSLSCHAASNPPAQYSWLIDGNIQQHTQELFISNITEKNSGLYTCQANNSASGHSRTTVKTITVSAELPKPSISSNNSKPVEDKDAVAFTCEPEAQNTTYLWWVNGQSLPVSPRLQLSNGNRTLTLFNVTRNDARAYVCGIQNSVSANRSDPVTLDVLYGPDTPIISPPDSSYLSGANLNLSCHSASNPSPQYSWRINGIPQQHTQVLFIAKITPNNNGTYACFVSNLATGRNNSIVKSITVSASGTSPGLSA
Method: as §1

[3] = target: B1; assay: as above
Method: as §1

[4] = target: T1, His-tagged rCEA A3B3 domain (residues …); assay: ELISA; untagged rCEA N coated, His-tagged module in solution, anti-His HRP detection

Does B1 bind [1]?
Result: binds

Does B1 bind [2]?
Result: binds

B2: untagged rCEA N domain (cleaved rCEA N, residues 1-132) (other)
chain: KLTIESTPFNVAEGKEVLLLVHNLPQHLFGYSWYKGERVDGNRQIIGYVIGTQQATPGPAYSGREIIYPNASLLIQNIIQNDTGFYTLHVIKSDLVNEEATGQFRVYPELPKPSISSNNSKPVEDKDAVAFT
notes: Made in E. coli, so it has no N-glycans; also called WT rCEA N domain; untagged WT rCEA N domain
Does B2 bind [3]?
Result: binds

Does B2 bind [4]?
Result: binds
